According to patent publication US20240166738A1 (Alector, published 2024):

B1: TM-30 (antibody, V domains shown)
VH: QVQLQQSGPELVKPGASVKLSCKASDNTFTNYDVNWVRQRPGQGLEWIGWIYPRDGTTIYNEKFKGRATLTVDTSSSTAYMELHSLTSEDSAVFFCARTLPQAMDYWGQGTSVTVSS
VL: DVLMTQSPLSLPVSLGDQVSISCRSSQTIVHRNGNTYLEWYLQKPGQSPKLLIYKVSNRFSGVPDRFSGSGSGTDFTLKISRVEAEDLGVYYCFQGSHLPWTFGGGTKLEIK
B2: TM-1 (antibody, V domains shown)
VH: QVQLQQSGAELVRPGTSVKVSCKASGYAFTNYLIEWVKQRPGQGLEWIGVINPGSGGTKYNEKLKGKATLTADKSSSTAYMQLSSLTSVDSAVYFCARRGYTIYDFYAMDYWGQGTSVTVSS
VL: DVLMTQTPLSLPVSLGDHASISCRSSQSIVYNNGNTYLEWYLQKPGQSPKLLIYKVSNRFSGVPDRFSGSGSGTDFTLKISRVEAEDLGVYYCFQVSHVPFTFGSGTKLEIK
B3: TM-54 (antibody, V domains shown)
VH: QVQMQQSGPVLVKPGASVTLSCKASGYTFTTYDLNWVKQRPGQGLEWIGWIYPRGGSTEYNEKFKGKATLTVDTSSSTAYMELHSLTSEDSAVYFCAKYSIYAMDYWGQGTSVTVSS
VL: DVLMTQTPLSLPVSLGDQASISCRSSQSIVHGNGNTYLEWYLQKPGQSPKLLIYKVSNRFSGVPDRFSGSGSGTDFTLKISRVEAEDLGVYYCFQGSHVPWTFGGGTKLEMK
B4: TM-18 (antibody, V domains shown)
VH: EVRLQQSGPELVKPGASVKISCKTSGYTFTDYYMNWVKQSHGKSLEWIVNINPNNGDAFYNQKFKGKATLTVDKSSNTAYLDLRSLTSEDSAVYYCAREGQLRLRRVYAMDYWGQGTSVTVSS
VL: DIVLAQSPASLAVSLGQRATISCRASKSVSISVYTYVHWYQQKPGQPPKLLIYLASNLESGVPARFSGSGSGTDFTLNIHPVEEEDAATYYCQHSRELPYTFGGGTKLEIK
B5: TM-88 (antibody, V domains shown)
VH: EAQLQQSGPVLVKPGASVKMSCKTSGYTFTDYYINWVKQSHGKSLEWIGVINPYSGATYYTQKFKGKATLTVDKSSSTAYMELNSQTSEDSAVYYCARGGYDYGHWYFDVWGTGTTVTVSS
VL: ETTVTQSPASLSMAIGEKVTIRCITSSDIDDHMNWYRQKPGEPPEFLISEGNALRPGVPSRFSSSGYGTDFIFTIENILSEDVADYYCLQSDNLPLTFGAGTKLELK
B6: TM-5 (antibody, V domains shown)
VH: QVQLQQSGTELARPGASVKVSCKASGYIFTTYGITWVKQRGGQGLEWIGEIYPRSDNTYYNEKFKDKATLTADKSSSTAYMELRSLTSEDSAVYFCARSKGSGTGDYWGQGTTVTVSS
VL: DIQMTQSPASLSASVGETVTITCRASENIYIYLAWYQQKQGKTPQLLVYNGKMLAENVPSRFSGSGSGTQFSLKINSLQPEDFGSYYCQHHYGSPPAFGAGTKLELK
B7: TM-15 (antibody, V domains shown)
VH: QVQLQQPGAEFVRPGASVKLSCKASGYTFTNYWITWVKQRPGHGLEWIGDIYPGSGNSNYNESFKRKATLTVDTSSSTAYMHLSSQTSEDSAVYFCARKAYGGFPYWGQGTLVTVSA
VL: DIQMTQSPASLSVSVGETVTITCRVSENIYNNLAWYQQKQEKSPQLLVFAATNLADGVPSRFSGSGSGTQFSLKINSLQSEDFGTYYCQHFWDTPFTFGSGTKLEIK
B8: TM-51 (antibody, V domains shown)
VH: QVQLQQPGAELVKPGASVKLSCKASGYTFTTYWIDWVKQRPGQGLEWIGNMFPGSSRTNYNEKFKSRATLTVDTSSSTAYMQLSSLTSDDSAVYYCARKEGLWTYGYDGGAWFAYWGQGTLVTVSA
VL: DIVMSQSPSSLAVSVGEKVTMSCKSSQSLRNSRTRKNYLAWYQQKPGQSPKLLIYWASTRESGVPDRFTGSGSGTDFTLTISSVQAEDLAIYYCKQSYNLLTFGAGTKLELK
B9: TM-80 (antibody, V domains shown)
VH: QVQLQQPGAELVKPGASVKLSCKASGYTFTTFWMHWVKQRPGQGLEWIGNIDPSDSETHYNQEFKDKATLTVDRSSNTAYMQLSSLTSEDSAVYYCARSSNWDNFDYWGQGTAVTVSS
VL: DIVMTQAAPSVPVTPGESVSISCRSSQSLLHVNGHTYLYWFLQRPGQSPQLLIYRMSNLASGVPDRFSGSGSGTVFTLRISRVETEDVGIYYCMQHLQYPFTFGSGTKLEIK
B10: TM-42 (antibody, V domains shown)
VH: QVQLQQSGAELAKPGASVKLSCKASGYTFTNYWMHWVKKRPGQGLEWIGYINPSSGYTKYNQKFKDKATLTADKSSNTAYMQLSSLTYEDSAVYYCTREGGSISDWYFDVWGTGTTVTVSS
VL: DIVMTQAAPSLPVTPGESVSISCRSSKSLLHSNGNTYLYWFLQRPGQSPQLLIYRMSNLASGVPDRFSGSGSGTAFTLRISRVEAEDVGVYYCMQHLEYPYTFGGGTKLEIK
B11: TM-28 (antibody, V domains shown)
VH: EVQLQQSGPVLVKPGPSVKISCMASVFTFNDYYIHWVKQSHGKSLEWIGLVYPYNGGTNYNQNFKGKATLTVDTSSRTAYMELNSLTSEDSAVYYCARSYFSNPIGYWGQGTLVTVSE
VL: DIVMTQSPSSLSVSVGEKVTVSCKSSQSLLNSGNQKNYLAWYQQKPGQPPKLLIYGASTRESGVPDRFTGSGSGTDFTLTISSVQAEDLAVYYCQNDHSYPLTFGAGTKLELK
B12: TM-7 (antibody, V domains shown)
VH: EVQLQQSGPVLVKPGPPVKISCKASGFTFTDYYIHWVKLSHGKSLEWIGLVYPYNGDTDYNQKFKGKATLTVDTSSSTAYMELNSLTSEDSAVYYCARTYYANSPDYWGQGTTVTVSS
VL: DIVMTQSPSSLSVSAGEKVTMSCKSSQSLLNSGNQRNYLAWYQQKPGQPPKLLIYGASTRESGVPDRFTGSGSGTDFTLTISNVQAEDLAVYYCQNDHSYPLTFGAGTKLELK
B13: TM-76 (antibody, V domains shown)
VH: QVTLKESGPGILQPSQTLSLTCSFSGFSLSTSGMGVSWIRKPSGKGLEWLAHIFWDDDKRYNLFLKSRLTVSKDTSSNQVFLMITSVDTTDTATYYCARMGRQRDYFDYWGQGTSLTVSS
VL: QIILTQSPAIMSASLGEEITLTCSASLSISYVHWYQQKSGASPKLLIYGTSNLASGVPSRFSGSGSGTFYSLTISSVEAEDAADYYCHQWSIYRTFGGGTKLEMK
B14: TM-13 (antibody, V domains shown)
VH: QVQLQQSGAELVKPGASVKMSCKASGYTFTTFPIEWMKQSHGKGLEWIGNFHPYNDDTKYNEKFKGKATLTVDKSSSTVYLDLSRLTSDDSAVYYCARYFYGGMDYWGQGTSVTVSS
VL: DIQMTQSPASLSVSVGETVTITCRASENIYSSLGWYQQKQGESPQLLVFAATNLADGVPSRFSGSGSGTQYSLKINSLQSEDFGTYYCQHLWSIPWTFGGGTRLEIK
B15: TM-84 (antibody, V domains shown)
VH: QVQLQQSGAELVKPGASVKMSCKASGYTFTTFPIEWMKQNHGKSLEWIGNFHPYNDDTKYNEKFKGKATLTVEKSSSTVYLELSRLTSDDSAVYYCARYFYGGMDYWGQGTSVTVSS
VL: DIQMTQSPASLSVSVGETVTITCRASENIYSSLGWYHQKQGKSPQLLVFAATNLADGVPSRFSGSGSGTQYSLKINSLQSEDFGTYYCQHLWSVPWTFGGGTKLEIK

Molecular target: human TMEM106B (human, UniProt Q9NUM4 2-274)
Experiment: cell-based or functional assay
Also: test concentration or dose not given here.

Binder | % Protection from CPE
B1 | 104%
B2 | 6.4%
B3 | 68.1%
B4 | 100%
B5 | 78.5%
B6 | 63.3%
B7 | 63.5%
B8 | 5.4%
B9 | 78%
B10 | 28.4%
B11 | 85.4%
B12 | 15.8%
B13 | 89.2%
B14 | 81.8%
B15 | 53.1%
